Laboratory results from PMC12154184, “An Anti-BCMA Affibody Affinity Protein for Therapeutic and Diagnostic Use in Multiple Myeloma” (International Journal of Molecular Sciences, 2025).

Target: T1, human APRIL (A Proliferation Inducing Ligand) (human, UniProt O75888 105-250)
T1 construct: No catalogue number is printed; also called hAPRIL; source: bought: R&D Systems
T1 sequence (looked up): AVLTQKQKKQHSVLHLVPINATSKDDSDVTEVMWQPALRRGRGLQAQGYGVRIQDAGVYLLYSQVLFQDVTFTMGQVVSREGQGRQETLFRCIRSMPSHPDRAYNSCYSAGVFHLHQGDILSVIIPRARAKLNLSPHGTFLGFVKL
Assay: SPR; blocking assay, Biacore T200; human BCMA-rFc immobilised; 1 µM 1-E6 (affibody-His6) or running buffer injected first, then 100 nM APRIL or 25 nM belantamab; PBS-T
Settings: both partners purified

B1: recombinant human BCMA extracellular domain fused to the Fc portion of rabbit IgG (BCMA-rFc) (Fc fusion, UniProt Q02223 5-50, looked up)
chain: AGQCSQNEYFDSLLHACIPCQLRCSSNTPPLTCQRYCNASVTNSVK
notes: human B Cell Maturation Antigen (BCMA, TNFRSF17, CD269), residues 5-50 containing the ECD as told in the results; the methods give residues 1-54 of UniProt Q02223 for the biotinylated selection antigen (cat. no. 10620-H03H-B); no range is printed for 10620-H15H itself; The discussion speaks of 45 residues; also called human BCMA-rFc; immobilised BCMA; source: bought: Sino Biological (cat. no. …)
binding result: binds
